Results from patent publication US20250042943A1, “FAP DETECTION” (THE UNIVERSITY COURT OF THE UNIVERSITY OF EDINBURGH, priority 2021, published 2025).

Columns and labels:
rhFAP = target: T1, rhFAP (Homo sapiens, UniProt Q12884); test: Probe cleavage by recombinant human FAP (fluorescence read); assay type: biochemical
T1 sequence (Q12884 1-760): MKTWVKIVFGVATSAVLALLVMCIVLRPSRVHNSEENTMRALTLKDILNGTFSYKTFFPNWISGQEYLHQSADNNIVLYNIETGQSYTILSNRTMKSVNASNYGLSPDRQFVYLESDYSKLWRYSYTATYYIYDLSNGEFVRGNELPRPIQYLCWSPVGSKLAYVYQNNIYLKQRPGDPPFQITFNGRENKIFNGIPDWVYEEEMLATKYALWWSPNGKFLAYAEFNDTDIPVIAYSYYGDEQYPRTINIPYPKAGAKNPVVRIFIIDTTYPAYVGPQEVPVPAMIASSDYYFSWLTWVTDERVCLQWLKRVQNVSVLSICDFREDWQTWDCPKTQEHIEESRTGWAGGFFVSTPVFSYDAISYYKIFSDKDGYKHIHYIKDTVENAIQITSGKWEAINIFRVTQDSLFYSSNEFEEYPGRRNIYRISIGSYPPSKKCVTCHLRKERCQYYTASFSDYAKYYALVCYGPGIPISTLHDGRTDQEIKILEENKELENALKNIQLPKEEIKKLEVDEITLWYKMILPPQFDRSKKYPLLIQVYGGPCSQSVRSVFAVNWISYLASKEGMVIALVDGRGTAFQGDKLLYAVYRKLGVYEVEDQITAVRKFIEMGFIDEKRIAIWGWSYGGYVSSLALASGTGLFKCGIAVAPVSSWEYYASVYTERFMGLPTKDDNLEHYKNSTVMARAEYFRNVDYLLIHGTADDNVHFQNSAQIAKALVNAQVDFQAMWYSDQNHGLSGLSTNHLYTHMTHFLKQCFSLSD

rhDPPIV = rhDPPIV (Homo sapiens, UniProt P27487); test: Probe cleavage by recombinant human DPPIV (exopeptidase activity); assay type: biochemical; conditions: probe 5 μM, enzyme 0.1 μg/ml, read 480/530 nm
rhPREP = target: T2, rhPREP (Homo sapiens, UniProt P48147); test: Probe cleavage by recombinant human PREP; assay type: biochemical; conditions: probe 5 μM, enzyme 0.1 μg/ml, read 480/530 nm
T2 sequence (P48147 1-710): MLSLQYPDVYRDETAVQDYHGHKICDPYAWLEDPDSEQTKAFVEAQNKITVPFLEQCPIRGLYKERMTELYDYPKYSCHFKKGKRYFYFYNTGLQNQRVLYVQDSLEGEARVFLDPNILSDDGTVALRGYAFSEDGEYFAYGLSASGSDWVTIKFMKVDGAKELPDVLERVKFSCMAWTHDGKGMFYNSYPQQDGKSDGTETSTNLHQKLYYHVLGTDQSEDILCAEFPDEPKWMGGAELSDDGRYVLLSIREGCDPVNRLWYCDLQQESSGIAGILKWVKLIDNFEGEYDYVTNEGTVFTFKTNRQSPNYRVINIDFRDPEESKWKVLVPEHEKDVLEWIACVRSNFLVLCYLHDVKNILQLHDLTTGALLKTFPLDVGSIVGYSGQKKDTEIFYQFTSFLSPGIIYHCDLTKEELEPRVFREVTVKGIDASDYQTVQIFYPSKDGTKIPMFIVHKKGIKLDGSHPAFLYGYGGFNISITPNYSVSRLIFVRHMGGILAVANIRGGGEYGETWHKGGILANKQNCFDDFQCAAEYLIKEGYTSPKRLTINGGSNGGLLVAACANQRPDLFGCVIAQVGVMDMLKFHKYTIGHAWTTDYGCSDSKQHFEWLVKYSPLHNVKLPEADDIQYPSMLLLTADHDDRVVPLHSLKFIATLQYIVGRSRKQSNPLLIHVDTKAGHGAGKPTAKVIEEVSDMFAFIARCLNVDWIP

[1] = system: activated neutrophil lysate; test: Assessment on activated neutrophil lysate; conditions: data not shown
FAP = target: T3, FAP (Homo sapiens, UniProt Q12884); conditions: Bainbridge et al; cited from earlier work
T3 sequence (Q12884 24-760 limits assumed): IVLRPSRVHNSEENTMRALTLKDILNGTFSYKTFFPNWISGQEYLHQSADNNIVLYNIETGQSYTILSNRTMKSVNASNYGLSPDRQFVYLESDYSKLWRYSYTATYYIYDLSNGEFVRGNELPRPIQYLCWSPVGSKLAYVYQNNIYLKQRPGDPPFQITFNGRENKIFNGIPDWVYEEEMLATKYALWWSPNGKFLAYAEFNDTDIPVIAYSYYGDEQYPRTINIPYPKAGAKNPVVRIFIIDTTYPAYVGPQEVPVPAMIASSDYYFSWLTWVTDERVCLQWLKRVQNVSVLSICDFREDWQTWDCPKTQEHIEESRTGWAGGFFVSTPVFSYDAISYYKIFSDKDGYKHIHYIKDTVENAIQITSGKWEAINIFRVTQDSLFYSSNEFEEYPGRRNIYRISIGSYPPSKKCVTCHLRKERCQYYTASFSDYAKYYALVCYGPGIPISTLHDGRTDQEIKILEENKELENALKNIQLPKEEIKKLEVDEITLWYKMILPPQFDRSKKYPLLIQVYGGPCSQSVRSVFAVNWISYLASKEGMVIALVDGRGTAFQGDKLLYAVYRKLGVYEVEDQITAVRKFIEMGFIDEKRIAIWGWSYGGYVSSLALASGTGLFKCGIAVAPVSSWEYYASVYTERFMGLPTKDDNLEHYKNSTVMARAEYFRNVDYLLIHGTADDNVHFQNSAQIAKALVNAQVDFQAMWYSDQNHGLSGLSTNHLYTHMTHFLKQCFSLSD

Sequence of rhDPPIV (P27487 whole entry): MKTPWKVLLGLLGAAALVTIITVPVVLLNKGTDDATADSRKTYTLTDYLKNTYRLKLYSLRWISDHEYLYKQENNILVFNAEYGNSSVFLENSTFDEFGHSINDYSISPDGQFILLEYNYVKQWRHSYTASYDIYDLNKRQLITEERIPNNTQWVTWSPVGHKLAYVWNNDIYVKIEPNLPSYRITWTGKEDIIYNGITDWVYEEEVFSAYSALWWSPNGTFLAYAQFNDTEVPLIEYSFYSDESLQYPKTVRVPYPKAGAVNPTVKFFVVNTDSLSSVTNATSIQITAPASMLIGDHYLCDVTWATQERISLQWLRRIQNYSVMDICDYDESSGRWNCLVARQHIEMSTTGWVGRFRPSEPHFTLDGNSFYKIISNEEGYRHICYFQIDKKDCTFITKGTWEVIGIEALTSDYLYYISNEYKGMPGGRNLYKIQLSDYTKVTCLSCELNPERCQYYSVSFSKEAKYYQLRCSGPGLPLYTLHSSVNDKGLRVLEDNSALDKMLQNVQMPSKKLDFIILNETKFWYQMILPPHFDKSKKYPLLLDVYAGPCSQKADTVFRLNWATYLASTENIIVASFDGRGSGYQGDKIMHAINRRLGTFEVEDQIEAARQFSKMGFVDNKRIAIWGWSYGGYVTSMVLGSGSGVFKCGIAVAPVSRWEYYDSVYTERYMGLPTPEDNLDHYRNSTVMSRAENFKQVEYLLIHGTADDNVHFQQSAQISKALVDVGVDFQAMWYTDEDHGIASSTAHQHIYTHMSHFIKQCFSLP

signal (relative fluorescence intensity) with rhFAP (rhFAP; comparison between probe iterations) | FAP specificity (over PREP) (rhFAP; from recombinant enzyme assessment) | cleavage by rhDPPIV (exopeptidase activity) (rhDPPIV) | cleavage by rhPREP (rhPREP) | cleavage by rhPREP (rhPREP; listed as FAP-sp) | Substance | MALDI-TOF analysis of probe after activated neutrophil lysate [1] | specificity over PREP (FAP)
improved signal characteristics | FAP specificity | no cleavage | no cleavage | no rhPREP cleavage | Lys(MethylRed)-Val-(D)Ser-Pro-Ser-Gln-Gly-Lys(5-FAM)-[Peg2-(D)Lys]3-NH2 [FAP-sP, reference compound] | all FAP-sP probe was cleaved | –
– | – | – | – | – | VsPSQG | – | specificity over PREP
